Patent publication US20240317857A1 (AMPSOURCE BIOPHARMA SHANGHAI, published 2024)

Experiments:
[1] = molecular target: T1, His-labeled human CD3E (human, UniProt P07766 23-126); assay: BLI (Octet), His-labeled human CD3E on Ni-NTA sensors, antibody 3.125-100 nM
T1 construct: also called human CD3E antigen; antigen CD3E; not shown: His label
Procedure: (§1) The binding affinity constants of the purified murine monoclonal antibodies to antigen CD3E were determined by […] (BLI) with the ForteBio Octet RED&QK system from PALL Corporation. Concentration gradients of a multichannel parallel quantitative analysis were set to 3.125, 6.25, 12.5, 25, 50 and 100 nM, and His-labeled human CD3E (10 μg/mL) was coupled to Ni-NTA sensors.

[2] = molecular target: T2, human CD3E (purchased from Acro Biosystems) (human, UniProt P07766 23-126); assay: ELISA, plate coated with human CD3E
T2 construct: also called human CD3 antigen; human CD3E molecules
Procedure: A microtiter plate was coated with 100 μL of 0.1 μg/mL human CD3E (purchased from Acro Biosystems) overnight at room temperature. The coating solution was discarded, and the wells were blocked with skimmed milk dissolved in phosphate buffered saline (PBS) for 0.5 hours and washed with PBS containing 0.05% Tween-20 (PBST). Then the purified murine antibodies AP191, AP591 and AP831 against human CD3 were added with 50 μL per well and incubated for 1 h at room temperature. The wells were washed with 0.05% PBST. Then 50 μL of HRP-labeled goat anti-mouse IgG polyclonal antibody (purchased from Jackson Laboratory) was added per well as the detected antibody and incubated for 1 h at 37° C. The wells were washed three times with 0.05% PBST, added with TMB (100 μL/well) and developed at room temperature for 5 min. 0.2 M H₂SO₄ was added to terminate the reaction, 50 μL/well. Absorption values were read by a microplate reader at double wavelengths 450 nm/620 nm. Plotting was performed by software GraphPad Prism 6 with OD 450 nm/620 nm as the Y-axis and an antibody concentration as the X-axis.

[3] = molecular target: T3, human CD3 on human T cells (human, UniProt P07766 23-207); assay: flow cytometry on human primary T cells
T3 construct: whole, on cells; also called human primary T cells; NFAT-Jurkat cells

[4] = molecular target: T1, His-labeled human CD3E; assay: BLI (Octet), method of Example 3: His-labeled human CD3E on Ni-NTA sensors
Procedure: as §1
For example, the experimental method for determining the kinetic constants and affinity equilibrium dissociation constants of the humanized antibodies was as described in Example 3.

T3 sequence (P07766 23-207): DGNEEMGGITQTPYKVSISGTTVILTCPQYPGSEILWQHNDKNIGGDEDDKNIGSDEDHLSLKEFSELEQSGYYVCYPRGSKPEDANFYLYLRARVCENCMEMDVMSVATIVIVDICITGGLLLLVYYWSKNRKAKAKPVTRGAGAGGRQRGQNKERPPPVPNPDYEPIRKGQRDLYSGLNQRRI
T1 sequence (P07766 23-126): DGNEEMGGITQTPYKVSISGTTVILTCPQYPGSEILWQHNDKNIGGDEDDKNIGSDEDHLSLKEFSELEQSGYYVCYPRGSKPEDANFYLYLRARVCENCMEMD
T2 sequence (P07766 23-126 limits assumed): as the sequence (P07766 23-126) above

| Binder | Kd [1] | koff [1] | kon [1] | EC50 [2] | EC50 [3] | Kd [4] | koff [4] | kon [4] |
| --- | --- | --- | --- | --- | --- | --- | --- | --- |
| murine monoclonal antibody AP591 (antibody, mouse IgG1, V domains shown) VH: EVQLVESGGGLVQPKGSLKLSCAASGFTFNTYAMNWVRQAPGKGLEWVGRIRSKINNYATYYADSVRDRFTISRDDSQSMLYLQMSNLKTEDTAMYYCVRHDNFYGSTYSWFADWGQGTLVTVSA VL: AVVTQESALTTSPGETVTLTCRSSTGVVTTSNYANWVQEKPDHLFTGLIGATNYRVPGVPARFSGSLIGDKAALTITGAQTEDEAIYFCVLWYSNHWVFGGGTKLTVL | 0.0194 nM | 1.04e-05 s⁻¹ | 539000 M⁻¹ s⁻¹ | 0.0283 nM | 8.91 nM | – | – | – |
| humanized antibody AB616 (antibody, V domains shown) VH: EVQLLESGGGLVQPGGSLKLSCAASGFTFDTYAMNWVRQAPGKGLEWVGRIRSKINNYATYYADSVKDRFTISRDDSKNTAYLQMNNLKTEDTAMYYCVRHDNFYGSTYSWFADWGQGTLVTVSS VL: ELVVTQEPSLTVSPGGTVTLTCRSSTGVVTTSNYANWVQEKPDHLFTGLIGATNYRAPGTPARFSGSLLGGKAALTLSGVQPEDEAIYFCVLWYSNHWVFGGGTKLTVL | – | – | – | – | – | 0.116 nM | 2.97e-05 s⁻¹ | 256000 M⁻¹ s⁻¹ |
| humanized antibody AB623 (antibody, V domains shown) VH: EVQLLESGGGLVQPGGSLKLSCAASGFTFNTYAMNWVRQAPGKGLEWVGRIRSKINNYATYYADSVKDRFTISRDDSKNTAYLQMNNLKTEDTAMYYCVRHDNHYGSTYSWFADWGQGTLVTVSS VL: ELVVTQEPSLTVSPGGTVTLTCRSSTGVVTTSNYANWVQEKPDHLFTGLIGATNYRAPGTPARFSGSLLGGKAALTLSGVQPEDEAIYFCVLWYSNHWVFGGGTKLTVL | – | – | – | – | – | 23.3 nM | 0.00119 s⁻¹ | 51200 M⁻¹ s⁻¹ |
| humanized antibody AB622 (antibody, V domains shown) VH: EVQLLESGGGLVQPGGSLKLSCAASGFTFNTYAMNWVRQAPGKGLEWVGRIRSKINNYATYYADSVKDRFTISRDDSKNTAYLQMNNLKTEDTAMYYCVRHDNFYGSTYSWFADWGQGTLVTVSS VL: ELVVTQEPSLTVSPGGTVTLTCRSSTGVVTTSNYANWVQEKPDHLFTGLIGATNHRAPGTPARFSGSLLGGKAALTLSGVQPEDEAIYFCVLWYSNHWVFGGGTKLTVL | – | – | – | – | – | 1.45 nM | 0.000391 s⁻¹ | 270000 M⁻¹ s⁻¹ |
| humanized antibody AB621 (antibody, V domains shown) VH: EVQLLESGGGLVQPGGSLKLSCAASGFTFNTYAMNWVRQAPGKGLEWVGRIRSKINNYATYYADSVKDRFTISRDDSKNTAYLQMNNLKTEDTAMYYCVRHDNFYGSTYSWFADWGQGTLVTVSS VL: ELVVTQEPSLTVSPGGTVTLTCRSSTGVVTTSNHANWVQEKPDHLFTGLIGATNYRAPGTPARFSGSLLGGKAALTLSGVQPEDEAIYFCVLWYSNHWVFGGGTKLTVL | – | – | – | – | – | 2.12 nM | 0.000369 s⁻¹ | 174000 M⁻¹ s⁻¹ |
| humanized antibody AB617 (antibody, V domains shown) VH: EVQLLESGGGLVQPGGSLKLSCAASGFTFNDYAMNWVRQAPGKGLEWVGRIRSKINNYATYYADSVKDRFTISRDDSKNTAYLQMNNLKTEDTAMYYCVRHDNFYGSTYSWFADWGQGTLVTVSS VL: ELVVTQEPSLTVSPGGTVTLTCRSSTGVVTTSNYANWVQEKPDHLFTGLIGATNYRAPGTPARFSGSLLGGKAALTLSGVQPEDEAIYFCVLWYSNHWVFGGGTKLTVL | – | – | – | – | – | 2.77 nM | 0.000698 s⁻¹ | 252000 M⁻¹ s⁻¹ |
| humanized antibody AB626 (antibody, V domains shown) VH: EVQLLESGGGLVQPGGSLKLSCAASGFTFNTYAMNWVRQAPGKGLEWVGRIRSKINNYATYYADSVKDRFTISRDDSKNTAYLQMNNLKTEDTAMYYCVRHDNFYGSTYSHFADWGQGTLVTVSS VL: ELVVTQEPSLTVSPGGTVTLTCRSSTGVVTTSNYANWVQEKPDHLFTGLIGATNYRAPGTPARFSGSLLGGKAALTLSGVQPEDEAIYFCVLWYSNHWVFGGGTKLTVL | – | – | – | – | – | 182 nM | 0.00169 s⁻¹ | 9300 M⁻¹ s⁻¹ |
| humanized antibody AB625 (antibody, V domains shown) VH: EVQLLESGGGLVQPGGSLKLSCAASGFTFNTYAMNWVRQAPGKGLEWVGRIRSKINNYATYYADSVKDRFTISRDDSKNTAYLQMNNLKTEDTAMYYCVRHDNFYGSTHSWFADWGQGTLVTVSS VL: ELVVTQEPSLTVSPGGTVTLTCRSSTGVVTTSNYANWVQEKPDHLFTGLIGATNYRAPGTPARFSGSLLGGKAALTLSGVQPEDEAIYFCVLWYSNHWVFGGGTKLTVL | – | – | – | – | – | 1.8 nM | 0.000318 s⁻¹ | 177000 M⁻¹ s⁻¹ |
| murine monoclonal antibody AP191 (antibody, mouse IgG1, V domains shown) VH: QVQLQQSGPELVKPGASMKMSCKASGYTFTSYYIHWVKQRPGQGLEWIGWIYPGDGSTKFNEKFRGKTSLTADKSSNTAYMFLSSLTSEDSAIYFCARDGYSLYYFEFWGHGTTLTVSS VL: DIVMSQSPSSLAVSAGETVTMSCKSSQSLLNSRTRKTYLAWYQQKPGQSPKLLIYWASTRDSGVPDRFTGSGSGTDFTLTISSVQAEDLAVYYCVQSYTLRTFGGGTKLEIK | 0.121 nM | 9.73e-05 s⁻¹ | 802000 M⁻¹ s⁻¹ | 0.0149 nM | 2.74 nM | – | – | – |
| murine monoclonal antibody AP831 (antibody, mouse IgG1, V domains shown) VH: QVQLQQSGPELVKPGTSVKMSCKASGYTFTNNYIHWVKEKPGEGLEWIGWIYPGDGTTKYNEKFKGKTTLASDKSSNTVYMFLSSLTSEDSAIYFCTRNNNYYFDYWGQGTTLTVSS VL: DIVMSQSPSSLAVSAGEKVTMNCKSSQSLFNSRTRKNYLAWYQQKPGQSPKLLIYWASTRESGVPDRFTGSGSGTDFTLTISSVQAEDLALYYCKQSFILRTFGGGTKLEIK | – | – | 692000 M⁻¹ s⁻¹ | 0.0404 nM | 0.825 nM | – | – | – |

The next lines start with the values.

| Kd [1] | koff [1] | kon [1] | EC50 [2] | EC50 [3] | Kd [4] | koff [4] | kon [4] | Binder |
| --- | --- | --- | --- | --- | --- | --- | --- | --- |
| – | – | – | – | – | 0.123 nM | 3.41e-05 s⁻¹ | 276000 M⁻¹ s⁻¹ | humanized antibody AB619 (antibody, V domains shown) VH: EVQLLESGGGLVQPGGSLKLSCAASGFTFNTYAMNWVRQAPGKGLEWVGRIRSKINNYATYYADSVKDRFTISRDDSKNTAYLQMNNLKTEDTAMYYCVRHDNFYGSTYSWFADWGQGTLVTVSS VL: ELVVTQEPSLTVSPGGTVTLTCRSSTGVVTTSNYANWVQEKPDHLFTGLIGATDYRAPGTPARFSGSLLGGKAALTLSGVQPEDEAIYFCVLWYSNHWVFGGGTKLTVL |
| – | – | – | – | – | ≤ 0.00264 nM | < 1e-07 s⁻¹ | 7300 M⁻¹ s⁻¹ | humanized antibody AB627 (antibody, V domains shown) VH: EVQLLESGGGLVQPGGSLKLSCAASGFTFNTYAMNWVRQAPGKGLEWVGRIRSKINNYATYYADSVKDRFTISRDDSKNTAYLQMNNLKTEDTAMYYCVRHDNFYGSTYSWHADWGQGTLVTVSS VL: ELVVTQEPSLTVSPGGTVTLTCRSSTGVVTTSNYANWVQEKPDHLFTGLIGATNYRAPGTPARFSGSLLGGKAALTLSGVQPEDEAIYFCVLWYSNHWVFGGGTKLTVL |
| – | – | – | – | – | 0.677 nM | 0.000201 s⁻¹ | 296000 M⁻¹ s⁻¹ | humanized antibody AB624 (antibody, V domains shown) VH: EVQLLESGGGLVQPGGSLKLSCAASGFTFNTYAMNWVRQAPGKGLEWVGRIRSKINNYATYYADSVKDRFTISRDDSKNTAYLQMNNLKTEDTAMYYCVRHDNFHGSTYSWFADWGQGTLVTVSS VL: ELVVTQEPSLTVSPGGTVTLTCRSSTGVVTTSNYANWVQEKPDHLFTGLIGATNYRAPGTPARFSGSLLGGKAALTLSGVQPEDEAIYFCVLWYSNHWVFGGGTKLTVL |
| – | – | – | – | – | 0.668 nM | 0.00017 s⁻¹ | 254000 M⁻¹ s⁻¹ | humanized antibody AB615 (antibody, V domains shown) VH: EVQLLESGGGLVQPGGSLKLSCAASGFDFNTYAMNWVRQAPGKGLEWVGRIRSKINNYATYYADSVKDRFTISRDDSKNTAYLQMNNLKTEDTAMYYCVRHDNFYGSTYSWFADWGQGTLVTVSS VL: ELVVTQEPSLTVSPGGTVTLTCRSSTGVVTTSNYANWVQEKPDHLFTGLIGATNYRAPGTPARFSGSLLGGKAALTLSGVQPEDEAIYFCVLWYSNHWVFGGGTKLTVL |
| – | – | – | – | – | 0.169 nM | 4.26e-05 s⁻¹ | 253000 M⁻¹ s⁻¹ | humanized antibody AB620 (antibody, V domains shown) VH: EVQLLESGGGLVQPGGSLKLSCAASGFTFDTYAMNWVRQAPGKGLEWVGRIRSKINNYATYYADSVKDRFTISRDDSKNTAYLQMNNLKTEDTAMYYCVRHDNFYGSTYSWFADWGQGTLVTVSS VL: ELVVTQEPSLTVSPGGTVTLTCRSSTGVVTTSNYANWVQEKPDHLFTGLIGATDYRAPGTPARFSGSLLGGKAALTLSGVQPEDEAIYFCVLWYSNHWVFGGGTKLTVL |
| – | – | – | – | – | < 0.001 nM | < 1e-07 s⁻¹ | 51200 M⁻¹ s⁻¹ | humanized antibody AB618 (antibody, V domains shown) VH: EVQLLESGGGLVQPGGSLKLSCAASGFTFNTYAMNWVRQAPGKGLEWVGRIRSKINNYATYYADSVKDRFTISRDDSKNTAYLQMNNLKTEDTAMYYCVRHDNFYGSTYSWFADWGQGTLVTVSS VL: ELVVTQEPSLTVSPGGTVTLTCRSSTGVVTTSNYANWVQEKPDHLFTGLIGDTNYRAPGTPARFSGSLLGGKAALTLSGVQPEDEAIYFCVLWYSNHWVFGGGTKLTVL |
